Laboratory results as given in patent US20190292517A1.

Target: CD3 on human peripheral blood T cells (human) (UniProt P07766)
Experiment: cell-based or functional assay

HIT3a, antibody recognizing 17-19 kD epsilon-chain of CD3 within the CD3 antigen/T cell antigen receptor (TCR) complex
fold expansion of human T cells at day 13, 1 ug anti-CD3 on APC-MS (1:1 with anti-CD28): 300 to 400 fold
fold expansion of human T cells at day 13, 5 ug anti-CD3 on APC-MS (1:1 with anti-CD28): 600 to 800 fold

UCHT1, monoclonal antibody recognizing a 20 kDa subunit of the TCR complex within CD3e
fold expansion of human T cells at day 13, 5 ug anti-CD3 on APC-MS (1:1 with anti-CD28): 600 to 800 fold

muromonab (OKT3), anti-CD3 antibody
fold expansion of human T cells at day 13, 0.5 ug anti-CD3 on APC-MS (1:1 with anti-CD28): 600 to 700 fold
fold expansion of human T cells at day 13, 1 ug anti-CD3 on APC-MS (1:1 with anti-CD28): 300 to 400 fold
fold expansion of human T cells at day 13, 5 ug anti-CD3 on APC-MS (1:1 with anti-CD28): 600 to 800 fold
